Key:
Experiment in all cases: cell-based or functional assay
[1] = target: CVS-11 rabies virus (rabies virus) (UniProt O92284)
[2] = target: Street rabies virus Deer, DRV, Jilin (rabies virus)
[3] = target: Street rabies virus Dog, BD06, Hebei (rabies virus)
[4] = target: Street rabies virus Dog, GN07, Guangdong (rabies virus)
[5] = target: Street rabies virus Dog, SC-CD09, Sichuan (rabies virus)
[6] = target: Street rabies virus Dog, ZJ-HZ09, Zhejiang (rabies virus)
[7] = target: Street rabies virus Ferret Badger, JX08-45, Jiangxi (rabies virus)
[8] = target: Street rabies virus Ferret Badger, JX09-27, Jiangxi (rabies virus)
[9] = target: Street rabies virus Ferret Badger, ZJ-LA, Zhejiang (rabies virus)
[10] = target: Street rabies virus Human, HN35, Hunan (rabies virus)
[11] = target: Street rabies virus Human, YN1, Yunnan (rabies virus)

UniProt O92284, sequence (O92284 20-524): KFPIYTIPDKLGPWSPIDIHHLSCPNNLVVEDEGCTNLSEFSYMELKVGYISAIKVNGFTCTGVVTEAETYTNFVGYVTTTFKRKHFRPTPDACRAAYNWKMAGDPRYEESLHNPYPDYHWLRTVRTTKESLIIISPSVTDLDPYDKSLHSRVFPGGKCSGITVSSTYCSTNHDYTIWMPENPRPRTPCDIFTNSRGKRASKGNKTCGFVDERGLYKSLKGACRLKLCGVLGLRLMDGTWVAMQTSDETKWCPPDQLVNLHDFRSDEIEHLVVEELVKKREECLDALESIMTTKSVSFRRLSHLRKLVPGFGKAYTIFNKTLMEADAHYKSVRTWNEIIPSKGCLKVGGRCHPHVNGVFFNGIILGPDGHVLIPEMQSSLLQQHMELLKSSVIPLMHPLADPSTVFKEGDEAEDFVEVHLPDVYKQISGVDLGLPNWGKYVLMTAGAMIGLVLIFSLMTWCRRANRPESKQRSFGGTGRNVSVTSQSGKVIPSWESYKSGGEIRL

Row | Binder | Neutralization potency (IU/mg), FAVN [1] | Neutralization potency (IU/mg), RFFIT [1] | Neutralizing Potency (IU/mg), RFFIT [1] | mouse neutralization test (MNT): survival rate at 0.004 mg/mL antibody [1] | mouse neutralization test (MNT): survivors of 8 mice at day 20 (of 8 surviving) [2] | mouse neutralization test (MNT): survivors of 8 mice at day 20 (of 8 surviving) [3] | mouse neutralization test (MNT): survivors of 8 mice at day 20 (of 8 surviving) [4] | mouse neutralization test (MNT): survivors of 8 mice at day 20 (of 8 surviving) [5] | mouse neutralization test (MNT): survivors of 8 mice at day 20 (of 8 surviving) [6] | mouse neutralization test (MNT): survivors of 8 mice at day 20 (of 8 surviving) [7] | mouse neutralization test (MNT): survivors of 8 mice at day 20 (of 8 surviving) [8] | mouse neutralization test (MNT): survivors of 8 mice at day 20 (of 8 surviving) [9] | mouse neutralization test (MNT): survivors of 8 mice at day 20 (of 8 surviving) [10] | mouse neutralization test (MNT): survivors of 8 mice at day 20 (of 8 surviving) [11]
1 | Mouse CT.RV 3D11E3 1A9 (antibody, V domains shown) VH: EIQLQQTGPELVKPGASVKISCKASGYSFTDYIMLWVKQSHGKSLEWIGDIYPYYGSTSYNLKFKGKATLTVDKSSSTAYMQLNSLTSEDSAVYYCARQGGDGNYVLFDYWGQGTTLTVSS VL: DIVMTQSQKFMSTSVGDRVSVTCKASQNVGTTVAWYQQKPGQSPKALIYSASYRYSGVPDRFTGSGSGTDFTLTISNVQSEDLAEYFCQQYNSYPFTFGSGTKLEIK | 308 IU/mg | 1260 IU/mg | 3680 IU/mg | 50% | 7 | 4 | 7 | 8 | 6 | 8 | 8 | 7 | 8 | 7
2 | Mouse CT.RV 7G11A3 2G11 (antibody, V domains shown) VH: EVQLVESGGGLVKPGGSLILSCAASGFTFSGFAMSWVRQTPEKRLEWVATISSGGTYTYSPDSVMGRFTISRDNAKNTLYLQMSSLRSEDTAMYYCARRLRRNYYSMDYWGQGTSVTVSS VL: DVVLTQAPLSLPVNIGDQASISCKSTKSLLNSDGFTYLDWYLQKPGQSPQLLIYLVSNRFSGVPDRFSGSGSGTDFTLKISRVEAEDLGIYFCFQSNYLPFTFGSGTKLEIK | 8310 IU/mg | 1670 IU/mg | 701 IU/mg |  | 8 | 6 | 7 | 8 | 7 | 8 | 8 | 8 | 8 | 7
3 | Hu1A9-1 (antibody, V domains shown) VH: QVQLVQSGAEVKKPGASVKVSCKASGYSFTDYIMLWVRQAPGQRLEWIGDIYPYYGSTSYNLKFKGKATLTVDTSASTAYMELSSLRSEDTAVYYCARQGGDGNYVLFDYWGQGTLVTVSS VL: DIQMTQSPSSLSASVGDRVTITCKASQNVGTTVAWYQQKPGKAPKALIYSASYRYSGVPSRFSGSGSGTDFTLTISSLQPEDFATYYCQQYNSYPFTFGQGTKLEIKR | 2100 IU/mg | 2290 IU/mg |  | 100% |  |  |  |  |  |  |  |  |  | 
4 | Hu1A9-2 (antibody, V domains shown) VH: QVQLVQSGAEVKKPGASVKVSCKASGYSFTDYIMLWVRQAPGQRLEWIGDIYPYYGSTSYNLKFKGKATLTVDTSASTAYMELSSLRSEDTAVYYCARQGGDGNYVLFDYWGQGTLVTVSS VL: DIQMTQSPSSLSASVGDRVTITCKASQNVGTTVAWYQQKPGKAPKVLIYSASYRYSGVPSRFSGSGSGTDFTLTISSLQPEDFATYYCQQYNSYPFTFGQGTKLEIKR | 405 IU/mg | 1310 IU/mg |  |  |  |  |  |  |  |  |  |  |  | 

Reference: patent publication US20150110781A1
